The target of test [1] is SIRPa on human monocytes (human) (UniProt P78324). Briefly: flow cytometry on human monocytes v1/v1, PE anti-human Fc; MFI [B, panel B table]. On the technique in general: Flow cytometry measures light scatter and fluorescence of single cells or particles in a stream.
The target is the same in test [2]. Briefly: flow cytometry on human monocytes v1/v1, PE anti-human Fc; percent of stained monocytes [B, panel A table].

This note sets out measurements from patent US20210179728A1.

B1: HALA (antibody, human IgG4 S228P, kappa, V domains shown)
VH: EVQLVQSGAEVKKPGESLRISCKASGYTFTSYWVHWVRQMPGKGLEWIGNIDPSDSDTHYNQKFKDHVTLSVDKSISTAYLQLSSLKASDTAMYYCVRGGTGTMAWFAYWGQGTLVTVSS
VL: DVVMTQSPLSLPVTLGQPASISCRSSQSLVHSYGNTYLYWYQQRPGQSPRLLIYRVSNRFSGVPDRFSGSGSGTDFTLKISRVEAEDVGVYFCFQGTHVPYTFGGGTKVEIKR
In general, EC50 refers to the concentration giving half of the maximal effect. Read a high EC50 as a less potent agent. Consider B1, for which the concentration for a half-maximal effect (EC50) in test [1] stood at 0.59 µg/mL; in test [2], 0.242 µg/mL.
